Measured values taken from patent publication US20170290876A1 (Novartis, published 2017).

Columns and labels:
human TNFα [1] = target: T1, human TNFα (human, UniProt P01375 77-233, biotinylated (site not stated)); test: Biacore SPR, Hu TNFα-biotin, 37 C
T1 construct: also called TNFα-biotin; Hu TNFα-biotin

human TNFα [2] = target: T1, human TNFα; test: Biacore SPR, TNFα-biotin, 37 C
Procedure: (§1) In order to determine target kinetics, two different formats were utilized. […] The second format is an anti-fab capture method in which the fab protein samples are captured and the target proteins flowed over at various concentrations.
(§2) The sample compartment which includes the analytes, ligands, and regeneration buffer, is kept at 15° C. All other running conditions were carried out at either 25° C. or 37° C. in 1×HBSE+P buffer. […] Data was collected at 10 Hz and analyzed using the Biacore T200 Evaluation Software (GE Healthcare®). This program uses a global fitting analysis method for the determination of rate and affinity constants for each interaction.

human TNFα [3] = target: T1, human TNFα; test: Biacore SPR; affinity of NVS73T against untagged NVS73
human VEGF [4] = target: T2, human VEGF (human, UniProt P15692 207-395, biotinylated (site not stated)); test: Biacore SPR, hVEGF-biotin, 37 C
T2 construct: Biotinylated human VEGF generated internally; also called hVEGF; hVEGF-biotin
T2 sequence: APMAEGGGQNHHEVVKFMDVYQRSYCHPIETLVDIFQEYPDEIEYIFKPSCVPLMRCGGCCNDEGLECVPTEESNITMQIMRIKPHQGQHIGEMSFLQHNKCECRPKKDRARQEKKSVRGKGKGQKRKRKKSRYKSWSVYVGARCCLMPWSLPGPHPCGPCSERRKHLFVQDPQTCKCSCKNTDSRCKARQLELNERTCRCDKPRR

human VEGF [5] = target: T2, human VEGF; test: Biacore SPR, hVEGF-biotin, 25 C
IL-1β = target: T3, IL-1β (human, UniProt P01584 117-269, biotinylated (site not stated)); test: Biacore SPR, IL1β-biotin, 25 C
T3 construct: also called IL1β-biotin

human VEGF [6] = target: T2, human VEGF; test: Biacore SPR, human VEGF
Procedure: as §1, §2

human VEGF [7] = target: T2, human VEGF; test: Biacore SPR, Hu VEGF-biotin, 37 C
Procedure: as §1, §2

human VEGF [8] = target: T2, human VEGF; test: Biacore SPR, hVEGF
human VEGF [9] = target: T2, human VEGF; test: Biacore SPR, Hu VEGF-biotin, 25 C
Procedure: as §1, §2

human Factor P [10] = target: T4, human Factor P (human, UniProt P27918 28-469, biotinylated (site not stated)); test: Biacore SPR, Hu factor P-biotin, 37 C
T4 construct: also called Factor P-biotin; Hu factor P-biotin

human Factor P [11] = target: T4, human Factor P; test: Biacore SPR, Factor P-biotin, 25 C
human Factor P [12] = target: T4, human Factor P; test: Biacore SPR; affinity of NVS71T against untagged NVS71
human VEGF [13] = target: T2, human VEGF; test: Biacore SPR, hVEGF; remark: listed apart in the source
Procedure: (§3) At first, individual CDR residues were substituted and the affinity for hVEGF was measured by Biacore as described below. […] HC8T, and HC9T and the affinity of the resulting peptide-tagged Fab for both HA and hVEGF was measured by Biacore as described below (Table 17).
(§4) Affinity of optimized HA-binding peptide tags for HA and human VEGF were measured by Biacore. […] In order to determine target kinetics, two different formats were utilized. […] The second format is an anti-fab capture method in which the fab protein samples are captured and the target proteins flowed over at various concentrations.
as §2

human VEGF [14] = target: T2, human VEGF; test: Biacore SPR, hVEGF; the minus sign of the exponent is missing in print (kd/ka of the same row = 3.05e-12)
Procedure: as §3, §4, §2

T4 sequence (P27918 28-469 limits assumed): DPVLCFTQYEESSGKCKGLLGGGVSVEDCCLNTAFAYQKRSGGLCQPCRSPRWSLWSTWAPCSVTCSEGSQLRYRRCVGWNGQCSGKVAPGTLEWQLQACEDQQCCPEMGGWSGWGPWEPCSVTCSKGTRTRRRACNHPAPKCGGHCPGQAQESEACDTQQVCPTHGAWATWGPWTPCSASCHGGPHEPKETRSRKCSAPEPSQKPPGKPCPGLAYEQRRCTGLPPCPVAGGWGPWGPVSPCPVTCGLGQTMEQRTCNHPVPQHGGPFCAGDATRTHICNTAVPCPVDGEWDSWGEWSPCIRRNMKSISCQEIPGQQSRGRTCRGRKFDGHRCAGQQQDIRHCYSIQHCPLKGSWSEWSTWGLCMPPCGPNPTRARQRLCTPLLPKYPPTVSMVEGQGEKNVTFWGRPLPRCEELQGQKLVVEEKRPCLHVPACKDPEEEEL
T1 sequence (P01375 77-233 limits assumed): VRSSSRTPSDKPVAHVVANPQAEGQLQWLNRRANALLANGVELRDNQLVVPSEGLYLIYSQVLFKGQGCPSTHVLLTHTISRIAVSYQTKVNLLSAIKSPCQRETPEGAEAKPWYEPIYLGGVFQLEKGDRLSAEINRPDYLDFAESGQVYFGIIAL

B1: NVS73 (Fab, V domains shown)
VH: EVQLVESGGGSVQPGGSLRLSCTASGFTISRSYWICWVRQAPGKGLEWVGCIYGDNDITPLYANWAKGRFTISRDTSKNTVYLQMNSLRAEDTATYYCARLGYADYAYDLWGQGTTVTVSS
VL: EIVMTQSPSTLSASVGDRVIITCQSSQSVYGNIWMAWYQQKPGRAPKLLIYQASKLASGVPSRFSGSGSGAEFTLTISSLQPDDFATYYCQGNFNTGDRYAFGQGTKLTVLK
notes: Untagged anti-TNFα Fab
- Kd (human TNFα [1]): 26 pM
- koff (human TNFα [1]): 8.01e-05 s⁻¹
- kon (human TNFα [1]): 3.08e+06 M⁻¹ s⁻¹

B2: NVS73T (Fab, V domains shown)
VH: B1 VH
VL: B1 VL
notes: Anti-TNFα Fab with HA tag at heavy chain C-terminus
- Kd (human TNFα [2]): 0.742 pM
- koff (human TNFα [2]): 2.47e-05 s⁻¹
- kon (human TNFα [2]): 3.33e+07 M⁻¹ s⁻¹
- Fold improvement (human TNFα [3]): 35 fold
- Kd (human TNFα [1]): 0.742 pM
- koff (human TNFα [1]): 2.47e-05 s⁻¹
- kon (human TNFα [1]): 3.33e+07 M⁻¹ s⁻¹

B3: NVS1e (Fab)
heavy: EVQLVESGGGLVQPGGSLRLSCTASGFSLTDYYYMTWVRQAPGKGLEWVGFIDPDDDPYYATWAKGRFTISRDNSKNTLYLQMNSLRAEDTAVYYCAGGDHNSGWGLDIWGQGTLVTVSSASTKGPSVFPLAPSSKSTSGGTAALGCLVKDYFPEPVTVSWNSGALTSGVHTFPAVLQSSGLYSLSSVVTVPSSSLGTQTYICNVNHKPSNTKVDKRVEPKSCGS
light: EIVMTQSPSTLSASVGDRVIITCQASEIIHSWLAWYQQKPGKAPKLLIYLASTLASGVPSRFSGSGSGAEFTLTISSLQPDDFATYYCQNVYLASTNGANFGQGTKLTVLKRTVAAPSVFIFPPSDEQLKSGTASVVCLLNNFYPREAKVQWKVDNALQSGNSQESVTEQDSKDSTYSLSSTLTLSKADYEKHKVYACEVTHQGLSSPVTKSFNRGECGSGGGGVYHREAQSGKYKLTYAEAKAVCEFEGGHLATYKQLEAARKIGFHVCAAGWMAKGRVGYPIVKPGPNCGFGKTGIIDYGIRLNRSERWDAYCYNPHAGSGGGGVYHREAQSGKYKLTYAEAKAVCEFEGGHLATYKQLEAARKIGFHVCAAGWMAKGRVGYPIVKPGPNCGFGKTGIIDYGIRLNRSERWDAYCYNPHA
notes: NVS4 with two tandem HA tags at the light chain C-terminus
- Kd (human VEGF [4]): 0.9 pM
- koff (human VEGF [4]): 1.26e-05 s⁻¹
- kon (human VEGF [4]): 1.4e+07 M⁻¹ s⁻¹

B4: NVS1j (Fab)
heavy: EVQLVESGGGLVQPGGSLRLSCTASGFSLTDYYYMTWVRQAPGKGLEWVGFIDPDDDPYYATWAKGRFTISRDNSKNTLYLQMNSLRAEDTAVYYCAGGDHNSGWGLDIWGQGTLVTVSSASTKGPSVFPLAPSSKSTSGGTAALGCLVKDYFPEPVTVSWNSGALTSGVHTFPAVLQSSGLYSLSSVVTVPSSSLGTQTYICNVNHKPSNTKVDKRVEPKSC
light: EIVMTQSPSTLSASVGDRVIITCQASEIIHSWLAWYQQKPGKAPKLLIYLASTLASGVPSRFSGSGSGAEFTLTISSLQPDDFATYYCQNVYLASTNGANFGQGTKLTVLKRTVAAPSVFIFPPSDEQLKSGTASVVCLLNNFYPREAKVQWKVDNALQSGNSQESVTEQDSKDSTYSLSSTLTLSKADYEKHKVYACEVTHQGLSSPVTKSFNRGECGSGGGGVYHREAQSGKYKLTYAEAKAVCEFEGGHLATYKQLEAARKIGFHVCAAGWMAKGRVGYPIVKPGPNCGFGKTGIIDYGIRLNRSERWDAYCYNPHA
notes: NVS4 with HA tag at the light chain C-terminus
- Kd (human VEGF [5]): 5.64 pM
- koff (human VEGF [5]): 0.000172 s⁻¹
- kon (human VEGF [5]): 3.05e+07 M⁻¹ s⁻¹

B5: NVS75T (Fab, V domains shown)
VH: QVQLVESGGGVVQPGRSLRLSCAASGFTFSVYGMNWVRQAPGKGLEWVAIIWYDGDNQYYADSVKGRFTISRDNSKNTLYLQMNGLRAEDTAVYYCARDLRTGPFDYWGQGTLVTVSS
VL: EIVLTQSPDFQSVTPKEKVTITCRASQSIGSSLHWYQQKPDQSPKLLIKYASQSFSGVPSRFSGSGSGTDFTLTINSLEAEDAAAYYCHQSSSLPFTFGPGTKVDIKR
notes: Anti-IL-1β Fab with HA tag; also called NCS75T
- Kd (IL-1β): 14 pM
- koff (IL-1β): 6.9e-05 s⁻¹
- kon (IL-1β): 4.95e+06 M⁻¹ s⁻¹

B6: NVS1 (Fab)
heavy: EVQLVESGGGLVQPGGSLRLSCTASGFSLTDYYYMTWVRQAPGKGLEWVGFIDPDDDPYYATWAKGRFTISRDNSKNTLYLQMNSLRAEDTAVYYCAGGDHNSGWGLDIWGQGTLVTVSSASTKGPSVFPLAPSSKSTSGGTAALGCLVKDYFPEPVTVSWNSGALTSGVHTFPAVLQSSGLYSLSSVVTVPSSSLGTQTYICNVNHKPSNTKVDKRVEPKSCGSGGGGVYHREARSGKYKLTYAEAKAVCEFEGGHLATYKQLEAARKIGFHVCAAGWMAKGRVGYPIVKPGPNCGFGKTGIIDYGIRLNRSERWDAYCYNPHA
light: EIVMTQSPSTLSASVGDRVIITCQASEIIHSWLAWYQQKPGKAPKLLIYLASTLASGVPSRFSGSGSGAEFTLTISSLQPDDFATYYCQNVYLASTNGANFGQGTKLTVLKRTVAAPSVFIFPPSDEQLKSGTASVVCLLNNFYPREAKVQWKVDNALQSGNSQESVTEQDSKDSTYSLSSTLTLSKADYEKHKVYACEVTHQGLSSPVTKSFNRGEC
notes: NVS4 Fab with HA10 tag via GSGGG at heavy chain C-terminus
- Kd (human VEGF [6]): 0.176 pM
- koff (human VEGF [6]): 1.01e-05 s⁻¹
- kon (human VEGF [6]): 5.75e+07 M⁻¹ s⁻¹

B7: NVS82 (antibody, human IgG1, kappa, L234A L235A)
heavy: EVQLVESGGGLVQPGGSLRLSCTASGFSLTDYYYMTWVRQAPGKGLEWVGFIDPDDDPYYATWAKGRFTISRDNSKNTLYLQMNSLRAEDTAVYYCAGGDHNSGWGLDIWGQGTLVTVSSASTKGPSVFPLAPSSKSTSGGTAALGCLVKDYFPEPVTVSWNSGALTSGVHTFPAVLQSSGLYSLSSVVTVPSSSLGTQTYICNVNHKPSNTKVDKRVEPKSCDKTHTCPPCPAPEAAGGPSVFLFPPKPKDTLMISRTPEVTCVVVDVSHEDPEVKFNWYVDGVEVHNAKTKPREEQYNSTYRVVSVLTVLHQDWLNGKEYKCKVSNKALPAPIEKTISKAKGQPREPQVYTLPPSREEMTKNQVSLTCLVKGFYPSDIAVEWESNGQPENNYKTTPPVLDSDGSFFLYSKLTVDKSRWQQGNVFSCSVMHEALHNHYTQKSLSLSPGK
light: B6 light
notes: also called IgG of NVS4
- Kd (human VEGF [7]): 7.64 pM
- koff (human VEGF [7]): 2.34e-05 s⁻¹
- kon (human VEGF [7]): 3.06e+06 M⁻¹ s⁻¹

B8: NVS36 (Fab)
heavy: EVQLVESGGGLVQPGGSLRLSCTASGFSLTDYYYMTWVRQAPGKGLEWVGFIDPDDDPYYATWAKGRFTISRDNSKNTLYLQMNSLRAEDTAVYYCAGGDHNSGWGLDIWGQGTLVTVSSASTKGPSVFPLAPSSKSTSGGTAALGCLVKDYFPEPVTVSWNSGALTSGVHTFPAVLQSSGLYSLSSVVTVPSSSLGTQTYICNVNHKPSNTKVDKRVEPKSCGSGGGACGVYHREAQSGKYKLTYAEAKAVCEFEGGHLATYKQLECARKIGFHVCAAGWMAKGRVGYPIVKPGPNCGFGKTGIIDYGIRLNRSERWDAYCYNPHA
light: B6 light
notes: NVS4 Fab with HA11 tag; also called NVS4 linked to tag NVS-A
- Kd (human VEGF [6]): 0.656 pM
- koff (human VEGF [6]): 2.5e-05 s⁻¹
- kon (human VEGF [6]): 3.81e+07 M⁻¹ s⁻¹
- Kd (human VEGF [8]): 4.13 pM
- koff (human VEGF [8]): 0.000257 s⁻¹
- kon (human VEGF [8]): 6.23e+07 M⁻¹ s⁻¹

B9: NVS1h (Fab)
heavy: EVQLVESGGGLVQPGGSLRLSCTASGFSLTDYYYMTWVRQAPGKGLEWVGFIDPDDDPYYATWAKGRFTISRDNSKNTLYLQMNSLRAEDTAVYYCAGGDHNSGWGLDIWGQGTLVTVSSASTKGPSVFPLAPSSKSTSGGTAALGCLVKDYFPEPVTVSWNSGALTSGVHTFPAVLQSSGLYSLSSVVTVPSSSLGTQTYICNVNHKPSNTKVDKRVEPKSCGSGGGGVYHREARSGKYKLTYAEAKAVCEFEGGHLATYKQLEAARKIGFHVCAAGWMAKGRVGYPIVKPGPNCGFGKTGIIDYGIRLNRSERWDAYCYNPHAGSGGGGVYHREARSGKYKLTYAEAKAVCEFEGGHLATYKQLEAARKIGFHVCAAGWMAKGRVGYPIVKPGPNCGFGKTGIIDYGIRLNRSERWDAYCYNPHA
light: B6 light
notes: NVS4 with tandem HA tags at the heavy chain C-terminus
- Kd (human VEGF [5]): 0.558 pM
- koff (human VEGF [5]): 8.76e-06 s⁻¹
- kon (human VEGF [5]): 1.57e+07 M⁻¹ s⁻¹

B10: NVS1g (Fab)
heavy: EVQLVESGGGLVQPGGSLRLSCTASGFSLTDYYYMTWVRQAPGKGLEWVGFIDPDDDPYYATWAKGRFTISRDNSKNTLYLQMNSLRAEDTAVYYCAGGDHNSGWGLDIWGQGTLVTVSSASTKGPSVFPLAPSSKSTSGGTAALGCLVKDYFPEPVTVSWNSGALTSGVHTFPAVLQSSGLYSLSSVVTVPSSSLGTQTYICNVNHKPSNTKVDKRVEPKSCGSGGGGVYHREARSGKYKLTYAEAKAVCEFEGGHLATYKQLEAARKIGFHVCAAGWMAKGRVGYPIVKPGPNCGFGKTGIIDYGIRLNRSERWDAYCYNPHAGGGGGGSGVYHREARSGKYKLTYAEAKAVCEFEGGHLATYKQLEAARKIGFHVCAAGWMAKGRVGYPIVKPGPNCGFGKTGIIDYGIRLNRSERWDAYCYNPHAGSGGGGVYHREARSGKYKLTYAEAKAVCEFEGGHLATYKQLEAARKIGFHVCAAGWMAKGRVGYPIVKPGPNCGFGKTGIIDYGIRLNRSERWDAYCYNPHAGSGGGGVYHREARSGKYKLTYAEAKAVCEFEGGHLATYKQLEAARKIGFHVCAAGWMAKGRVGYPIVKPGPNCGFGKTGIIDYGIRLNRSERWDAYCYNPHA
light: B6 light
notes: NVS4 with four tandem HA tags at the heavy chain C-terminus
- Kd (human VEGF [5]): 5.46 pM
- kon (human VEGF [5]): 614000 M⁻¹ s⁻¹

B11: NVS37 (Fab)
heavy: EVQLVESGGGLVQPGGSLRLSCTASGFSLTDYYYMTWVRQAPGKGLEWVGFIDPDDDPYYATWAKGRFTISRDNSKNTLYLQMNSLRAEDTAVYYCAGGDHNSGWGLDIWGQGTLVTVSSASTKGPSVFPLAPSSKSTSGGTAALGCLVKDYFPEPVTVSWNSGALTSGVHTFPAVLQSSGLYSLSSVVTVPSSSLGTQTYICNVNHKPSNTKVDKRVEPKSCGSGGGGVYHREAQSGKYKLTYAEAKAVCEFEGGHLCTYKQLEAARKIGFHVCAAGWMAKGRVGYPIVKPGPNCGFGKTGIIDYGIRLNRSERWDAYCCNPHA
light: B6 light
notes: NVS4 Fab with HA11.1 tag
- Kd (human VEGF [6]): 3.07 pM
- koff (human VEGF [6]): 7.21e-05 s⁻¹
- kon (human VEGF [6]): 2.35e+07 M⁻¹ s⁻¹

B12: NVS2 (Fab)
heavy: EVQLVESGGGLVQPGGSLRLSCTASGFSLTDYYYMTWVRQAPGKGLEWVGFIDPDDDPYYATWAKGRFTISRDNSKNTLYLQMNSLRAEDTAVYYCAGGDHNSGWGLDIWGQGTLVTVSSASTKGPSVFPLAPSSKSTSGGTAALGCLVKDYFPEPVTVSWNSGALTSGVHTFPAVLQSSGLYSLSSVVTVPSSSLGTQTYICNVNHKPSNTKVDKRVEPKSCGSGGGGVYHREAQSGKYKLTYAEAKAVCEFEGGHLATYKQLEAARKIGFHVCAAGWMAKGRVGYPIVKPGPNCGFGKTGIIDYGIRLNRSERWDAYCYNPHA
light: B6 light
notes: NVS4 Fab with HA10.1 tag at heavy chain C-terminus
- Kd (human VEGF [6]): 0.195 pM
- koff (human VEGF [6]): 1.05e-05 s⁻¹
- kon (human VEGF [6]): 5.36e+07 M⁻¹ s⁻¹

B13: NVS3 (Fab)
heavy: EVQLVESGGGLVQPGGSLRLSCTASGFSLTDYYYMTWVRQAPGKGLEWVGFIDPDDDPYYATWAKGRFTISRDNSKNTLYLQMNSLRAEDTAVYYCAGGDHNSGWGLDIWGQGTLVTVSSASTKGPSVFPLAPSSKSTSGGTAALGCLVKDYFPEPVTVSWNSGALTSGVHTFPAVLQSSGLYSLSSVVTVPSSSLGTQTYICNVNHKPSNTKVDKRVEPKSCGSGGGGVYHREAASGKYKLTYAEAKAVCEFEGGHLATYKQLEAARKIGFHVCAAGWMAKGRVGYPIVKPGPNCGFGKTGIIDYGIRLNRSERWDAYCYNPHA
light: B6 light
notes: NVS4 Fab with HA10.2 tag at heavy chain C-terminus
- Kd (human VEGF [6]): 0.161 pM
- koff (human VEGF [6]): 1.19e-05 s⁻¹
- kon (human VEGF [6]): 7.39e+07 M⁻¹ s⁻¹

B14: NVS83 (scFv)
scFv: MEIVMTQSPSTLSASVGDRVIITCQASEIIHSWLAWYQQKPGKAPKLLIYLASTLASGVPSRFSGSGSGAEFTLTISSLQPDDFATYYCQNVYLASTNGANFGQGTKLTVLGGGGGGSGGGGSGGGGSSGGGSEVQLVESGGGLVQPGGSLRLSCTASGFSLTDYYYMTWVRQAPGKGLEWVGFIDPDDDPYYATWAKGRFTISRDNSKNTLYLQMNSLRAEDTAVYYCAGGDHNSGWGLDIWGQGTLVTVSSHHHHHH
notes: also called scFv of NVS4
- Kd (human VEGF [9]): 6.75 pM
- koff (human VEGF [9]): 9.18e-06 s⁻¹
- kon (human VEGF [9]): 1.36e+06 M⁻¹ s⁻¹

B15: NVS84 (designed binder)
chain: SDLGKKLLEAARAGQDDEVRILMANGADVNTADSTGWTPLHLAVPWGHLEIVEVLLKYGADVNAKDFQGWTPLHLAAAIGHQEIVEVLLKNGADVNAQDKFGKTAFDISIDNGNEDLAEILQKAAGSLPETGGGSGHHHHHH
notes: Untagged anti-VEGF DARPin
- Kd (human VEGF [9]): 419 pM
- koff (human VEGF [9]): 0.00168 s⁻¹
- kon (human VEGF [9]): 4.01e+06 M⁻¹ s⁻¹

B16: NVS71 (Fab, V domains shown)
VH: EVQLVQSGAEVKKPGSSVKVSCKASGGTFSSYAISWVRQAPGQGLEWMGRIIPIFGTANYAQKFQGRVTITADESTSTAYMELSSLRSEDTAVYYCARHGGYSFDSWGQGTLVTVSS
VL: SYELTQPPSVSVAPGQTARISCSGDNLGSKYVDWYQQKPGQAPVLVIYSDNNRPSGIPERFSGSNSGNTATLTISGTQAEDEADYYCQTYTSGNNYLVFGGGTKLTVLG
notes: Untagged anti-Factor P Fab
- Kd (human Factor P [10]): 543 pM
- koff (human Factor P [10]): 0.00161 s⁻¹
- kon (human Factor P [10]): 2.96e+06 M⁻¹ s⁻¹

B17: NVS71T (Fab, V domains shown)
VH: B16 VH
VL: B16 VL
notes: Anti-Factor P Fab with HA tag at heavy chain C-terminus
- Kd (human Factor P [10]): 95.5 pM
- koff (human Factor P [10]): 0.000412 s⁻¹
- kon (human Factor P [10]): 4.31e+06 M⁻¹ s⁻¹
- Kd (human Factor P [11]): 95.5 pM
- koff (human Factor P [11]): 0.000412 s⁻¹
- kon (human Factor P [11]): 4.31e+06 M⁻¹ s⁻¹
- Fold improvement (human Factor P [12]): 5.7 fold

B18: NVS4 light chain variant E27Q (Fab, V domains shown)
VH: EVQLVESGGGLVQPGGSLRLSCTASGFSLTDYYYMTWVRQAPGKGLEWVGFIDPDDDPYYATWAKGRFTISRDNSKNTLYLQMNSLRAEDTAVYYCAGGDHNSGWGLDIWGQGTLVTVSS
VL: EIVMTQSPSTLSASVGDRVIITCQASQIIHSWLAWYQQKPGKAPKLLIYLASTLASGVPSRFSGSGSGAEFTLTISSLQPDDFATYYCQNVYLASTNGANFGQGTKLTVLK
notes: CDR variant of NVS4
- koff (human VEGF [13]): 1.64e-05 s⁻¹
- kon (human VEGF [13]): 5.37e+06 M⁻¹ s⁻¹
- Kd (human VEGF [14]): 3.06 pM
